The values that follow come from publication PMC2801285.

The target in this test is CaV2.1 (full-length) (UniProt P54282).

Turning to “CaV2.1 N terminus (residues 1–100) (from UniProt P54282 1-100) (domain or fragment)”, the inhibition of peak IBa (CaV2.1/α2δ-2/β4) on co-expression in Xenopus oocytes came out at 37.9 % inhibition.

Take “CaV2.1 N terminus-CAAX (from UniProt P54282 1-100) (domain or fragment)”: the reduction of peak IBa (CaV2.1/α2δ-2/β4) on co-expression in Xenopus oocytes turned out to be 43.8 % reduction.
